Patent US9878046B2, “Adverse side-effects associated with administration of an anti-hyaluronan agent and methods for ameliorating or preventing the side-effects” (Halozyme, Inc., priority 2010, dated 2018)

Assays:
[1] = test system: PC3 prostate carcinoma cell line; experiment: Antitumor activity in PC3 prostate cancer xenograft model; format: in vivo, human (xenograft in athymic male nude mice); design: key to % TGI (% Tumor Growth Inhibition): TR = Tumor Regression
Experimental: Tumor cells from the PC3 prostate carcinoma cell line were grown to approximately 80% confluency then trypsinized, collected, washed once in HBSS (Hank's balance salt solution, Mediatech Inc.), then re-suspended in 50% Matrigel® in HBSS at 2×10^7 cells/mL on ice before inoculation into animals. Athymic male nude mice (Nu/Nu (Ncr); Taconic Farms; average weight ˜20 g) were inoculated intramuscularly (IM) with 0.05 mL of this cell suspension, peritibially, in the left hind leg (adjacent to the tibia periosteum). The implants in the animals were assessed twice a week and allowed to grow to a mean tumor volume of approximately 500 mm^3 (Day −2; Table 12). Actual tumor volumes were determined using VisualSonics Vevo 770 high-resolution ultrasound, using two perpendicular axial dimensions.
Animals were sorted randomly and grouped into 6 groups of 8 mice per group (6+2 satellite mice). Treatment groups were vehicle (API buffer), PEGPH20 (157,500 Units/kg, 4.5 mg/kg), low dose dexamethasone (1.25 mg/kg), high dose dexamethasone (5 mg/kg), PEGPH20 (4.5 mg/kg)+low dose dexamethasone (1.25 mg/kg) and PEGPH20 (4.5 mg/kg)+high dose dexamethasone (5 mg/kg). The dose and frequency of the PEGPH20 (or vehicle) intravenous injections was 157,500 Units/kg or approximately 4.5 mg/kg, every 3rd day starting on Day 0 (Days 0, 3, 6, 9, 12) with a total of 5 injections (Q3Dx5) with a dose volume of 0.1 mL. This dosing and frequency regimen was previously shown to inhibit xenograft tumor growth by 34-70%. The doses and frequency of the dexamethasone intraperitonal injections were 1.25 mg/kg at the low dose and 5 mg/kg at the high dose, once a day until Day 13 (QDx13) with a dose volume of 0.1 mL.
The tumor volumes of all mice were measured pre-treatment on Day −2 (average tumor volume of ˜500 mm^3) and on Day 1, 6, 9, 13, 16 and 20 by capturing images using the VisualSonic ultrasound system and using an ultrasound imaging software program to calculate tumor volume (Table 12).

[2] = test system: soluble plasma hyaluronan; experiment: Soluble plasma hyaluronan ELISA in PC3 tumor-bearing mice; format: in vivo; details: PEGPH20 4.5 mg/kg alone or + dexamethasone (high or low dose)
Experimental: Plasma samples were additionally used to measure soluble plasma hyaluronan in the control group and each of the treatment groups (R&D Systems Catalog DY3614; ELISA assay). In the vehicle control group, the plasma hyaluronan levels ranged from 800,000 to 900,000 ng/mL.

pericellular hyaluronan = experiment: Hyaluronan staining of PC3 tumor sections; format: in vivo, human (xenograft in athymic male nude mice); details: Day 14, dexamethasone low or high dose, PEGPH20 4.5 mg/kg, or both
Experimental: Tumor tissues from the two satellite mice from all 6 treatment groups in Example 9A.1 above, were harvested by tissue biopsy on Day 14 and stained for the presence of hyaluronan. Tumor biopsies were fixed in 10% NBF for 48 hours, embedded in paraffin, and sectioned. Samples were probed for hyaluronan using a biotinylated HA-binding protein (HABP), then probed with FITC-labeled streptavidin for detection. The cell nuclei were counterstained with DAPI (4′,6-diamidino-2-phenylindole) reagent. Micrographs were then captured using a Zeiss Microscope (Thornwood, N.Y.) coupled with the Spot imaging program (Diagnostic Instruments, Inc).
Hyaluronan expression in the sections was evaluated by the level of green fluorescent intensity in the sections.

[3] = test system: BxPC3 pancreatic cancer cell line; experiment: Antitumor activity in BxPC3 pancreatic cancer xenograft model; format: in vivo, human (xenograft in athymic female nude mice)
Experimental: Tumor cells from the BxPC3 pancreatic cancer cell line were grown to approximately 80% confluency, trypsinized, collected, washed once in HBSS (Hank's balance salt solution, Mediatech Inc.), and re-suspended in 50% Matrigel in HBSS at 2×10^7 cells/mL on ice before inoculation into animals. Athymic female nude mice (average weight ˜20 g) were inoculated intramuscularly (IM) with 0.05 mL of cell suspension, peritibially, in the left hind leg (adjacent to the tibia periosteum). The tumors in the animals were assessed twice a week and allowed to grow to a mean tumor volume of approximately 250 mm^3 (Day −1; Table 13). Actual tumor volumes were determined using VisualSonics Vevo 770 high-resolution ultrasound.
The animals were randomly grouped into 6 groups of 8 animals per group (6+2 satellite mice) and treated with vehicle (API buffer), PEGPH20 (157,500 Units/kg, 4.5 mg/kg), low dose dexamethasone (1.25 mg/kg), high dose dexamethasone (5 mg/kg), PEGPH20 (4.5 mg/kg)+low dose dexamethasone (1.25 mg/kg) and PEGPH20 (4.5 mg/kg)+high dose dexamethasone (5 mg/kg). The dose and frequency of the PEGPH20 (or vehicle) intravenous injections was 157,500 Units/kg or approximately 4.5 mg/kg, on Days 0, 3, 7, 10, 13 and 17 for a total of 6 injections starting on Day 0 (dose volume of 0.1 mL). The doses and frequency of the dexamethasone intraperitonal injections was 1.25 mg/kg at the low dose and 5 mg/kg at the high dose, once a day until Day 17 (QDx17) with a dose volume of 0.1 mL.
The tumor volumes of all mice were measured pre-treatment on Days −4 and −1 (mean tumor volume of ˜250 mm^3) and on Days 4, 7, 11, 14 and 17 by capturing images using the VisualSonic ultrasound system and using an ultrasound imaging software program to calculate the tumor volume (Table 13). The percent tumor growth inhibition (% TGI) was calculated as described above in Example 9A.

B1: PEGPH20 (protein)
chain: LNFRAPPVIPNVPFLWAWNAPSEFCLGKFDEPLDMSLFSFIGSPRINATGQGVTIFYVDRLGYYPYIDSITGVTVNGGIPQKISLQDHLDKAKKDITFYMPVDNLGMAVIDWEEWRPTWARNWKPKDVYKNRSIELVQQQNVQLSLTEATEKAKQEFEKAGKDFLVETIKLGKLLRPNHLWGYYLFPDCYNHHYKKPGYNGSCFNVEIKRNDDLSWLWNESTALYPSIYLNTQQSPVAATLYVRNRVREAIRVSKIPDAKSPLPVFAYTRIVFTDQVLKFLSQDELVYTFGETVALGASGIVIWGTLSIMRSMKSCLLLDNYMETILNPYIINVTLAAKMCSQVLCQEQGVCIRKNWNSSDYLHLNPDNFAIQLEKGGKFTVRGKPTLEDLEQFSEKFYCSCYSTLSCKEKADVKDTDAVDVCIADGVCIDAFLKPPMETEEPQIFY
Tumor volume ([1]; Day 1, PEGPH20 4.5 mg/kg IV Q3Dx5 and/or dexamethasone 1.25 mg/kg IP QDx13): 394.38 mm^3
% TGI (% Tumor Growth Inhibition) ([1]; Day 1, PEGPH20 4.5 mg/kg alone or + dexamethasone 1.25 mg/kg): TR
Tumor volume ([1]; Day 6, PEGPH20 4.5 mg/kg IV Q3Dx5 and/or dexamethasone 1.25 mg/kg IP QDx13): 598.39 mm^3
% TGI (% Tumor Growth Inhibition) ([1]; Day 6, PEGPH20 4.5 mg/kg alone or + dexamethasone 1.25 mg/kg): 71%
Tumor volume ([1]; Day 9, PEGPH20 4.5 mg/kg IV Q3Dx5 and/or dexamethasone 1.25 mg/kg IP QDx13): 674.83 mm^3
% TGI (% Tumor Growth Inhibition) ([1]; Day 9, PEGPH20 4.5 mg/kg alone or + dexamethasone 1.25 mg/kg): 64%
Tumor volume ([1]; Day 13, PEGPH20 4.5 mg/kg IV Q3Dx5 and/or dexamethasone 1.25 mg/kg IP QDx13): 827.53 mm^3
% TGI (% Tumor Growth Inhibition) ([1]; Day 13, PEGPH20 4.5 mg/kg alone or + dexamethasone 1.25 mg/kg): 56%
Tumor volume ([1]; Day 16, PEGPH20 4.5 mg/kg IV Q3Dx5 and/or dexamethasone 1.25 mg/kg IP QDx13): 1046.73 mm^3
% TGI (% Tumor Growth Inhibition) ([1]; Day 16, PEGPH20 4.5 mg/kg alone or + dexamethasone 1.25 mg/kg): 47%
Tumor volume ([1]; Day 20, PEGPH20 4.5 mg/kg IV Q3Dx5 and/or dexamethasone 1.25 mg/kg IP QDx13): 1310.85 mm^3
% TGI (% Tumor Growth Inhibition) ([1]; Day 20, PEGPH20 4.5 mg/kg alone): 41%
Tumor volume ([1]; Day −2 (pre-treatment), PEGPH20 4.5 mg/kg IV Q3Dx5 and/or dexamethasone 1.25 mg/kg IP QDx13): 491.10 mm^3
plasma hyaluronan [2]: no detectable (below limit of quantitation) hyaluronan
pericellular hyaluronan staining of tumor sections (pericellular hyaluronan): almost completely absent
Tumor volume ([3]; Day 4, PEGPH20 4.5 mg/kg IV x6 and/or dexamethasone 1.25 mg/kg IP QDx17): 350.44 mm^3
% TGI (% Tumor Growth Inhibition) ([3]; Day 4, PEGPH20 4.5 mg/kg alone or + dexamethasone 1.25 mg/kg): 68%
Tumor volume ([3]; Day 7, PEGPH20 4.5 mg/kg IV x6 and/or dexamethasone 1.25 mg/kg IP QDx17): 394.40 mm^3
% TGI (% Tumor Growth Inhibition) ([3]; Day 7, PEGPH20 4.5 mg/kg alone or + dexamethasone 1.25 mg/kg): 63%
Tumor volume ([3]; Day 11, PEGPH20 4.5 mg/kg IV x6 and/or dexamethasone 1.25 mg/kg IP QDx17): 473.50 mm^3
% TGI (% Tumor Growth Inhibition) ([3]; Day 11, PEGPH20 4.5 mg/kg alone or + dexamethasone 1.25 mg/kg): 60%
Tumor volume ([3]; Day 14, PEGPH20 4.5 mg/kg IV x6 and/or dexamethasone 1.25 mg/kg IP QDx17): 596.96 mm^3
% TGI (% Tumor Growth Inhibition) ([3]; Day 14, PEGPH20 4.5 mg/kg alone or + dexamethasone 1.25 mg/kg): 54%
Tumor volume ([3]; Day 17, PEGPH20 4.5 mg/kg IV x6 and/or dexamethasone 1.25 mg/kg IP QDx17): 790.16 mm^3
% TGI (% Tumor Growth Inhibition) ([3]; Day 17, PEGPH20 4.5 mg/kg alone or + dexamethasone 1.25 mg/kg): 48%
Tumor volume ([3]; Day −1 (pre-treatment), PEGPH20 4.5 mg/kg IV x6 and/or dexamethasone 1.25 mg/kg IP QDx17): 275.75 mm^3
Tumor volume ([3]; Day −4 (pre-treatment), PEGPH20 4.5 mg/kg IV x6 and/or dexamethasone 1.25 mg/kg IP QDx17): 196.87 mm^3
histopathologic changes of knee joint or skeletal muscle (IV twice weekly, 4 weeks): no associated histopathologic changes
clinical signs (monkeys administered PEGPH20): hypoactivity, lethargy, disorientation, hunched posture and a decrease in limb joint angle
